Data as given in patent US8790663B2, “Antigenic determinants of human death receptor DR5” (Institute of Basic Medical Sciences, Chinese Academy of …, priority 2009, dated 2014).

Assays:
AD5-10 [1] = test: Synthetic peptides binding AD5-10 and blocking its tumoricidal activity on Jurkat cells; format: cell-based, mouse
Method: (§1) The human lymphocyte leukemia Jurkat cells in exponential phase were seeded in the 96-well plate at the density of 2×10^4/well. Then synthetic peptides were sufficiently mixed with AD5-10 according to corresponding concentrations and incubated at 37° C. for 1 h. The mixture was then added to the culture wells containing the tumor cells. CCK-8 agent (Dojindo Laboratories, Kumamoto, Japan) was used and the OD values (wavelength […]) were detected 2 h after the reaction. The OD value of the wells having no cells was set to be “0”, the Relative cell viability=OD value of treated well/OD value of untreated sample×100%.

AD5-10 [2] = test: Oriented Peptide Array Library: binding of peptides to AD5-10; design: species or system mouse; details: for binding capabilities to AD5-10 (antigenicity): AD5-10 2 μg/ml
Text: A series of the derivative peptides comprising the core peptide (as shown in Tab. 1 and 2) were synthesized according to the amino acid sequence of human DR5 (NCBI Acc #: NP_671716.1) provided in NCBI protein database. Subsequently, the peptide arrays as said above were spotted on nitrocellulose membranes using an ASP222 SPOT robot workstation (one dot corresponds to one polypeptide of which the concentration is about 5 nmol), the homogenicity of the protein amount was detected with ninhydrin staining before the corresponding detection. The membrane was blocked with 3% BSA in TBS-T solution for 1 h at room temperature and followed by incubation with corresponding specific primary antibodies (the final concentration is 2 μg/ml) at 4° C. over night. The array membrane was then incubated with HRP-conjugated goat anti-mouse polyclonal antibodies for 2 h at room temperature and then chromogenic substrate ECL was added to develop the membrane.

[3] = test system: human colon cancer cells HCT116; test: Tumoricidal activity to human colon cancer cells HCT116 (microscopy, CCK-8); format: cell-based
Method: HCT116 cells were treated with TRAIL, AD5-10 and monoclonal antibodies Adie-1 and Adie-2 of different concentrations. […] The OD value of the wells having no cells was set to be “0”, the Relative cell viability=OD value of treated well/OD value of untreated sample×100%.

[4] = test system: human T lymphocyte leukemia Jurkat cells; test: Cell viability of Jurkat cells (CCK-8); format: cell-based; details: different concentrations, 8 hours
Method: as §1

[5] = peptide at different concentrations

AITQQDLAPQQRA (wild type epitope 2) [wild-type epitope 2]
binding to AD5-10 and blocking of its cytotoxicity (AD5-10 [1]; peptide 10 μM): can bind to AD5-10 and block its cytotoxicity | binding to AD5-10 and blocking of its cytotoxicity (AD5-10 [1]; [5]): can bind to AD5-10 and block its cytotoxicity

ALITQQDLAPQQ (Extended sequence of SEQ ID NO. 1 which extends from the N-terminal of the said amino acid sequence to the C-terminal of the amino acid sequence in accordance with the amino acid sequence of DR5)
binding capabilities to AD5-10 (antigenicity) (AD5-10 [2]): the strongest

AQITQQDLAPQQRA (wild type epitope 1) [wild-type epitope 1]
binding to AD5-10 and blocking of its cytotoxicity (AD5-10 [1]; peptide 10 μM): can bind to AD5-10 and block its cytotoxicity | binding to AD5-10 and blocking of its cytotoxicity (AD5-10 [1]; [5]): can bind to AD5-10 and block its cytotoxicity

ITQQDLAPQQRA (Extended sequence of SEQ ID NO. 1 which extends from the N-terminal of the said amino acid sequence to the C-terminal of the amino acid sequence in accordance with the amino acid sequence of DR5)
binding capabilities to AD5-10 (antigenicity) (AD5-10 [2]): the strongest

QDLAP (Antigenic determinants recognized by the mouse anti-human death receptor DR5 monoclonal antibody AD5-10)
epitope recognized by AD5-10 (AD5-10 [2]): shortest amino acid sequence of the epitope recognized by AD5-10

TRAIL: tumor necrosis factor-related apoptosis inducing ligand, natural ligand for death receptors DR4 and DR5
morphological changes and cell death characteristics of HCT116 cells observed under microscope ([3]; 500 ng/ml, 8 h): Apparent morphological changes and cell death characteristics | cell viability of HCT116 cells ([3]; different concentrations, CCK-8): notably reduced with the increase of the treatment concentrations | cell viability of Jurkat cells [4]: can inhibit the cell viability of human T lymphocyte leukemia Jurkat cells in a dose-dependent manner

mutant epitope 1: synthetic peptide of wild-type epitope 1 with the key amino acid residues mutated (AQITQQDAAPQQRA; mutant epitope 1)
binding to AD5-10 and blocking of its cytotoxicity (AD5-10 [1]; peptide 10 μM): cannot bind to AD5-10

mutant epitope 2: synthetic peptide of wild-type epitope 2 with the key amino acid residues mutated (AITQQDAAPQQRA; mutant epitope 2)
binding to AD5-10 and blocking of its cytotoxicity (AD5-10 [1]; peptide 10 μM): cannot bind to AD5-10
